# Measurements: patent publication US20240400640A1 (published 2024)
# B1: hIL-21 receptor (receptor)
# chain: not shown
# Biological target: IL-21-Fc
# Experiment: SPR
binder,measurement,value
B1,Kd,1.68 pM
